Laboratory results taken from PMC4735112, “The Functional Unit of Neisseria meningitidis 3-Deoxy-ᴅ-Arabino-Heptulosonate 7-Phosphate Synthase Is Dimeric” (PLoS ONE, 2016).

Tests used:
[1] = molecular target: Neisseria meningitidis 3-deoxy-D-arabino-heptulosonate 7-phosphate synthase, R126S variant (N. meningitidis) (UniProt Q9K169); experiment: SEC
[2] = molecular target: Neisseria meningitidis 3-deoxy-D-arabino-heptulosonate 7-phosphate synthase, R126S variant (N. meningitidis) (UniProt Q9K169); experiment: crystal structure
[3] = molecular target: Neisseria meningitidis 3-deoxy-D-arabino-heptulosonate 7-phosphate synthase, R126S variant (N. meningitidis) (UniProt Q9K169); experiment: AUC; sedimentation velocity, 20°C, 10 mM BTP pH 7.3, 100 mM KCl, 200 μM PEP; 0.2, 0.4 and 1.2 mg/mL; continuous size distribution model (SEDFIT)
[4] = molecular target: Neisseria meningitidis 3-deoxy-D-arabino-heptulosonate 7-phosphate synthase, R126S variant (N. meningitidis) (UniProt Q9K169); experiment: SAXS; SEC-coupled small angle X-ray scattering, 25°C, 10 mM BTP pH 7.5, 100 mM KCl, 200 μM PEP; initial 7 mg/mL (wild type) and 12 mg/mL (R126S) prior to SEC; CRYSOL fits to tetramer and tight dimer of the crystal structure

Which results are given for “Neisseria meningitidis 3-deoxy-D-arabino-heptulosonate 7-phosphate synthase, R126S variant (from UniProt Q9K169 1-351) (enzyme)”?
stoichiometry N [1]: 2; stoichiometry N [2]: 4; stoichiometry N [3]: 2; stoichiometry N [4]: 2
